For the assay, the target named is GST-HAb18GE (a fusion of the extracellular domain of hepatoma-associated antigen HAb18G with GST) (human) (UniProt P35613). The assay is described as follows: indirect ELISA on coated GST-HAb18GE; positive control; mean ± S. Background: In an ELISA, binding on a coated surface is turned into a signal by an enzyme label.
Chain of UniProt P35613 (P35613 138-325): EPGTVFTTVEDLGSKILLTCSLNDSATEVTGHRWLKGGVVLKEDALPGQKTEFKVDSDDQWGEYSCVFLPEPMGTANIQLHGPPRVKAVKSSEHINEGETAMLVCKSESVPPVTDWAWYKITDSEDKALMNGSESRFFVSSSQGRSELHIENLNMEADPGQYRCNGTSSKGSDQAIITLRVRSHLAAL

B1: murine anti-human hepatoma McAb HAb18 (antibody, mouse IgG1, V domains shown)
VH: EVKLEESGGGLVQPGGSMKLSCVASGFTFSDAWMDWVRQSPEKGLEWVAEIRSKANNHAPYYTESVKGRFTISRDDSKSIIYLQMNNLRAEDTGIYYCTRDSTATHWGQGTLVTVSS
VL: SIVMTQTPTFLVVSAGDRVTITCKASQSVINDVAWYQQKPGQSPKLLIFYASNRNTGVPDRFTGSGYGTDFTFTISTVQAEDLAVYFCQQDYSPPFTFGSGTKLEIK
modifications: HRP-labelled in the competitive ELISAs
For B1, the A450 (Indirect ELISA) was found to be 1.02 A450.

(Values after patent publication US20050176933A1.)
